Assay results: patent US20030232760A1, “Conjugates useful in the treatment of prostate cancer” (priority 2001, published 2003)
Where a SMILES comes first, the peptide text is derived from it. Primed or numbered codes have the meaning given here. [ ]: non-standard residue; d: D form. The star is where a group is joined. ξ: configuration not given here. Doxorubicin(3'-N) = COc1cccc2c1C(=O)c1c(O)c3c(c(O)c1C2=O)C[C@@](O)(C(=O)CO)C[C@@H]3O[C@H]1C[C@H](N*)[C@H](O)[C@H](C)O1; PEG(2) = polyethylene glycol-containing substituent with two ethyleneoxy subunits; Hyp = O=C(O)[C@@H]1C[C@@H](O)CN1; ξtBuAla = CC(C)(C)CC(N)C(=O)O; Chg = N[C@H](C(=O)O)C1CCCCC1; ξHyp = O=C(O)C1CC(O)CN1

What was measured:
[1] = target: T1, enzymatically active free PSA (Homo sapiens, UniProt P07288); assay: Recognition of oligopeptides by free PSA (HPLC cleavage assay); format: biochemical; conditions: for Time to 50% Substrate Cleavage by PSA: oligopeptide added to PSA at molar ratio 100 to 1, PSA digestion buffer; for Substrate cleavage by PSA at 3 HOURS: oligopeptide added to PSA at molar ratio 100 to 1
T1 construct: required for 50% cleavage of the noted oligopeptides with enzymatically active free PSA
T1 sequence (P07288 25-261): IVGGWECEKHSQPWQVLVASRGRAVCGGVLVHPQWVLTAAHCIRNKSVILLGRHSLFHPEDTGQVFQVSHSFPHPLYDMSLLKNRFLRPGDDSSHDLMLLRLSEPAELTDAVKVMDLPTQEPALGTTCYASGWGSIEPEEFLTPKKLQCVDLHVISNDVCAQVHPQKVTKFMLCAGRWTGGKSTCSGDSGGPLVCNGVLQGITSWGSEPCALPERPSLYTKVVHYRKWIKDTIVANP
Description: The oligopeptides prepared as described in Example 1 were individually dissolved in PSA digestion buffer (12 mM tris(hydroxymethyl)-aminomethane pH8.0, 25 mM NaCl, 0.5 mM CaCl2) and the solution added to PSA at a molar ration of 100 to 1. Alternatively, the PSA digestion buffer utilized is 50 mM tris(hydroxymethyl)-aminomethane pH7.4, 140 mM NaCl. The reaction is quenched after various reaction times by the addition of trifluoroacetic acid (TFA) to a final 1% (volume/volume). Alternatively the reaction is quenched with 10 mM ZnCl2. The quenched reaction was analyzed by HPLC on a reversed-phased C18 column using an aqueous 0.1% TFA/acetonitrile gradient. […] Oligopeptides containing free amine moieties (ie. comprising hArg, Orn, Lys and or 3PAL) were tested as TFA salts. All other oligopeptides were tested as neutral compounds.

[2] = target: T1, enzymatically active free PSA; assay: Recognition of oligopeptide-doxorubicin conjugates by free PSA (HPLC cleavage assay); format: biochemical; conditions: for Time to 50% Substrate Cleavage by PSA: conjugate added to PSA at molar ratio 100 to 1, PSA digestion buffer
Description: The conjugates prepared as described in Examples 3-5 were individually dissolved in PSA digestion buffer (12 mM tris(hydroxymethyl)-aminomethane pH8.0, 25 mM NaCl, 0.5 mm CaCl2) and the solution added to PSA at a molar ration of 100 to 1. Alternatively, the PSA digestion buffer utilized is 50 mM tris(hydroxymethyl)-aminomethane pH7.4, 140 mM NaCl. The reaction is quenched after various reaction times by the addition of trifluoroacetic acid (TFA) to a final 1% (volume/volume). Alternatively the reaction is quenched with 10 mm ZnCl2. The quenched reaction was analyzed by HPLC on a reversed-phase C18 column using an aqueous 0.1% TFA/acetonitrile gradient. […] If no salt is indicated for the conjugate, the free conjugate was tested. The oligopeptide-cytotoxic agent conjugates described in Examples 4 and 5 were assessed for the amount of time (in minutes) required for 50% cleavage of the oligopeptide with enzymatically active free PSA and 50% cleavage occurred in less than 2 hours for those conjugates.

[3] = test system: LNCap prostate tumor cells (which express enzymatically active PSA); assay: In vitro cytotoxicity of peptidyl derivatives of doxorubicin, Alamar Blue assay, LNCaP; format: cell-based; conditions: 72 HRS, read-out: LNCaP Cell Kill in 72 HRS EC 50
Description: (§1) The cytotoxicities of the cleaveable oligopeptide-doxorubicin conjugates, prepared as described in Examples 3 and 4, against a line of cells which is known to be killed by unmodified doxorubicin were assessed with an Alamar Blue assay. Specifically, cell cultures of LNCap prostate tumor cells (which express enzymatically active PSA) or DuPRO cells in 96 well plates was diluted with medium (Dulbeco's Minimum Essential Medium-α [MEM-α]) containing various concentrations of a given conjugate (final plate well volume of 200 μl). The cells were incubated for 3 days at 37° C., 20 μl of Alamar Blue is added to the assay well. The cells were further incubated and the assay plates were read on a EL-310 ELISA reader at the dual wavelengths of 570 and 600 nm at 4 and 7 hours after addition of Alamar Blue. Relative percentage viability at the various concentration of conjugate tested was then calculated versus control (no conjugate) cultures. If no salt is indicated, the free conjugate was tested.

DuPRO cells = assay: In vitro cytotoxicity of peptidyl derivatives of doxorubicin, Alamar Blue assay, DuPRO; format: cell-based; conditions: 72 HRS, read-out: DuPRO Cell Kill in 72 HRS EC 50
Description: as §1

[N-Ac-(4-trans-L-Hyp)]-Ala-Ser-Chg-Gln-Ser-Leu-OH (Ac-[Hyp]AS[Chg]QSL-OH) [Ac-(4-trans-L-Hyp)ASChgQ-SL-acid]
Time to 50% Substrate Cleavage by PSA [1]: 75 min

Ac-(Dehydro-Pro)-ASChgQ-SL-acid
Substrate cleavage by PSA at 3 HOURS [1]: 3 HOURS = 28%

PEG(2)-(4-trans-L-Hyp)ASChgQ-SL-acid ({PEG(2)}-[Hyp]AS[Chg]QSL-OH)
Substrate cleavage by PSA at 3 HOURS [1]: 3 HOURS = 44%

Ac-(4-trans-L-Hyp)ASChgQ-SThi-DOX (3′)
Solubility noted in the column Time to 50% Substrate Cleavage by PSA [2]: INSOLUBLE

Ac-PASChgQ-SL-acid (Ac-PAS[Chg]QSL-OH)
Time to 50% Substrate Cleavage by PSA [1]: 150 min

Ac-(4-trans-L-Hyp)ChgQ-SSSL-acid
Substrate cleavage by PSA at 3 HOURS [1]: 3 HOURS = 0% n = 2

COc1cccc2c1C(=O)c1c(O)c3c(c(O)c1C2=O)C[C@@](O)(C(=O)CO)C[C@@H]3O[C@H]1C[C@H](NC(=O)[C@H](CC(C)C)NC(=O)[C@H](CO)NC(=O)[C@H](CCC(N)=O)NC(=O)[C@@H](NC(=O)[C@H](CO)NC(=O)[C@H](C)NC(=O)[C@@H]2C[C@@H](O)CN2C(C)=O)C2CCCCC2)[C@H](O)[C@H](C)O1 [Ac-(4-trans-L-Hyp)ASChgQ-SL-DOX (3′), [N-Ac-(4-trans-L-Hyp)]-Ala-Ser-Chg-Gln-Ser-Leu-Dox] (Ac-[Hyp]AS[Chg]QSL-{Doxorubicin(3'-N)})
Time to 50% Substrate Cleavage by PSA [2]: 20 min
EC50 [3]: 4.5 µM
EC50 (DuPRO cells): 90 µM

COc1cccc2c1C(=O)c1c(O)c3c(c(O)c1C2=O)C[C@@](O)(C(=O)CO)C[C@@H]3O[C@H]1C[C@H](NC(=O)C(CC(C)(C)C)NC(=O)[C@H](CO)NC(=O)[C@H](CCC(N)=O)NC(=O)[C@@H](NC(=O)[C@H](CO)NC(=O)[C@H](C)NC(=O)C2CC(O)CN2C(C)=O)C2CCCCC2)[C@H](O)[C@H](C)O1 (stereo partly shown) (Ac-[ξHyp]AS[Chg]QS[ξtBuAla]-{Doxorubicin(3'-N)})
Time to 50% Substrate Cleavage by PSA [2]: 25 min
EC50 [3]: 100 µM
EC50 (DuPRO cells): > 100 µM

Ac-PSSChgQ-SV-acid
Time to 50% Substrate Cleavage by PSA [1]: 120 min
